Our source for the % Inhibition (primary neuron assay) and LB Discrimination Index values is US20230025707A1.

In test [1] the target is human α-Synuclein pre-formed fibrils (human) (UniProt P37840). Kind of test: cell-based or functional assay.
For test [2], the target named is Lewy body α-Synuclein (human) (UniProt P37840). Kind of test: IHC, human amygdala; OD of Lewy bodies / OD of tissue.

As for Syn211 (antibody), in test [1], the % Inhibition (primary neuron assay) was determined as 94.7%.

For the substance Syn303 (antibody), the LB Discrimination Index in test [2] worked out at 2.1.

IgG (antibody) came in with a % Inhibition (primary neuron assay) in test [1] of 0%.
